{"source": "the RNAGym collection of RNA variant scans (doi:10.1093/molbev/msab373)", "parents": {"B1": {"name": "Azoarcus group I ribozyme (parent)", "chain": "GUGCCUUGCGCCGGGAAACCACGCAAGGGAUGGUGUCAAAUUCGGCGAAACCUAAGCGCCCGCCCGGGCGUAUGGCAACGCCGAGCCAAGCUUCGGCGCCUGCGCCGAUGAAGGUGUAGAGACUAGACGGCACCCACCUAAGGCAAACGCUAUGGUGAAGGCAUAGUCCAGGGAGUGGCGAAAGUCACACAAACCGG"}}}
{"variants_of": "B1", "test": "reverse-splicing fitness (ratio to wild type); higher = more active; in vitro selection; Mg2+ level not given", "in_short": "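An in vitro group I ribozyme library with randomized positions was T7-transcribed and gel-purified. In triplicate, 10 pmol RNA in EPPS pH 7.5 was reacted with 50 pmoles of a 30-nt RNA substrate for 1 h at 37 °C across several added MgCl2 levels (1–48 mM), then stopped with EDTA. Products were reverse transcribed from a substrate-complementary primer, PCR-amplified and sequenced (HiSeq 4000). Fitness is a variant's read proportion after selection over that before, normalised to wild type.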"}
{"variant": "C82G A111C A120C A145G C150U U176G", "reverse-splicing fitness": 0.00788}
{"variant": "C82G A111C A120C A145G C169A", "reverse-splicing fitness": 0.00871}
{"variant": "C82G A111C A120C A145G C169A U176A", "reverse-splicing fitness": 0.0223}
{"variant": "C82G A111C A120C A145G C169A U176C", "reverse-splicing fitness": 0.0254}
{"variant": "C82G A111C A120C A145G C169A U176G", "reverse-splicing fitness": 0.00796}
{"variant": "C82G A111C A120C A145G C169G", "reverse-splicing fitness": 0.00771}
{"variant": "C82G A111C A120C A145G C169G U176A", "reverse-splicing fitness": 0.0188}
{"variant": "C82G A111C A120C A145G C169G U176C", "reverse-splicing fitness": 0.0253}
{"variant": "C82G A111C A120C A145G C169G U176G", "reverse-splicing fitness": 0.00618}
{"variant": "C82G A111C A120C A145G C169U", "reverse-splicing fitness": 0.0139}
{"variant": "C82G A111C A120C A145G C169U U176A", "reverse-splicing fitness": 0.0139}
{"variant": "C82G A111C A120C A145G C169U U176C", "reverse-splicing fitness": 0.0158}
{"variant": "C82G A111C A120C A145G C169U U176G", "reverse-splicing fitness": 0.00614}
{"variant": "C82G A111C A120C A145G U176A", "reverse-splicing fitness": 0.0172}
{"variant": "C82G A111C A120C A145G U176C", "reverse-splicing fitness": 0.0314}
{"variant": "C82G A111C A120C A145G U176G", "reverse-splicing fitness": 0.00761}
{"variant": "C82G A111C A120C A145U", "reverse-splicing fitness": 0.0547}
{"variant": "C82G A111C A120C A145U C150A", "reverse-splicing fitness": 0.011}
{"variant": "C82G A111C A120C A145U C150A C169A", "reverse-splicing fitness": 0.00835}
{"variant": "C82G A111C A120C A145U C150A C169A U176A", "reverse-splicing fitness": 0.0163}
{"variant": "C82G A111C A120C A145U C150A C169A U176C", "reverse-splicing fitness": 0.0129}
{"variant": "C82G A111C A120C A145U C150A C169A U176G", "reverse-splicing fitness": 0.00868}
{"variant": "C82G A111C A120C A145U C150A C169G", "reverse-splicing fitness": 0.0083}
{"variant": "C82G A111C A120C A145U C150A C169G U176A", "reverse-splicing fitness": 0.0143}
{"variant": "C82G A111C A120C A145U C150A C169G U176C", "reverse-splicing fitness": 0.0169}
{"variant": "C82G A111C A120C A145U C150A C169G U176G", "reverse-splicing fitness": 0.00775}
{"variant": "C82G A111C A120C A145U C150A C169U", "reverse-splicing fitness": 0.011}
{"variant": "C82G A111C A120C A145U C150A C169U U176A", "reverse-splicing fitness": 0.0126}
{"variant": "C82G A111C A120C A145U C150A C169U U176C", "reverse-splicing fitness": 0.0133}
{"variant": "C82G A111C A120C A145U C150A C169U U176G", "reverse-splicing fitness": 0.00817}
{"variant": "C82G A111C A120C A145U C150A U176A", "reverse-splicing fitness": 0.0102}
{"variant": "C82G A111C A120C A145U C150A U176C", "reverse-splicing fitness": 0.0153}
{"variant": "C82G A111C A120C A145U C150A U176G", "reverse-splicing fitness": 0.00601}
{"variant": "C82G A111C A120C A145U C150G", "reverse-splicing fitness": 0.00916}
{"variant": "C82G A111C A120C A145U C150G C169A", "reverse-splicing fitness": 0.00941}
{"variant": "C82G A111C A120C A145U C150G C169A U176A", "reverse-splicing fitness": 0.0121}
{"variant": "C82G A111C A120C A145U C150G C169A U176C", "reverse-splicing fitness": 0.0108}
{"variant": "C82G A111C A120C A145U C150G C169A U176G", "reverse-splicing fitness": 0.00726}
{"variant": "C82G A111C A120C A145U C150G C169G", "reverse-splicing fitness": 0.00765}
{"variant": "C82G A111C A120C A145U C150G C169G U176A", "reverse-splicing fitness": 0.0088}
{"variant": "C82G A111C A120C A145U C150G C169G U176C", "reverse-splicing fitness": 0.00759}
{"variant": "C82G A111C A120C A145U C150G C169G U176G", "reverse-splicing fitness": 0.00673}
{"variant": "C82G A111C A120C A145U C150G C169U", "reverse-splicing fitness": 0.00897}
{"variant": "C82G A111C A120C A145U C150G C169U U176A", "reverse-splicing fitness": 0.00736}
{"variant": "C82G A111C A120C A145U C150G C169U U176C", "reverse-splicing fitness": 0.0121}
{"variant": "C82G A111C A120C A145U C150G C169U U176G", "reverse-splicing fitness": 0.0068}
{"variant": "C82G A111C A120C A145U C150G U176A", "reverse-splicing fitness": 0.00549}
{"variant": "C82G A111C A120C A145U C150G U176C", "reverse-splicing fitness": 0.0099}
{"variant": "C82G A111C A120C A145U C150G U176G", "reverse-splicing fitness": 0.00383}
{"variant": "C82G A111C A120C A145U C150U", "reverse-splicing fitness": 0.0335}
{"variant": "C82G A111C A120C A145U C150U C169A", "reverse-splicing fitness": 0.0102}
{"variant": "C82G A111C A120C A145U C150U C169A U176A", "reverse-splicing fitness": 0.0138}
{"variant": "C82G A111C A120C A145U C150U C169A U176C", "reverse-splicing fitness": 0.0124}
{"variant": "C82G A111C A120C A145U C150U C169A U176G", "reverse-splicing fitness": 0.00748}
{"variant": "C82G A111C A120C A145U C150U C169G", "reverse-splicing fitness": 0.00788}
{"variant": "C82G A111C A120C A145U C150U C169G U176A", "reverse-splicing fitness": 0.0133}
{"variant": "C82G A111C A120C A145U C150U C169G U176C", "reverse-splicing fitness": 0.0162}
{"variant": "C82G A111C A120C A145U C150U C169G U176G", "reverse-splicing fitness": 0.0072}
{"variant": "C82G A111C A120C A145U C150U C169U", "reverse-splicing fitness": 0.0116}
{"variant": "C82G A111C A120C A145U C150U C169U U176A", "reverse-splicing fitness": 0.015}
{"variant": "C82G A111C A120C A145U C150U C169U U176C", "reverse-splicing fitness": 0.0153}
{"variant": "C82G A111C A120C A145U C150U C169U U176G", "reverse-splicing fitness": 0.00674}
{"variant": "C82G A111C A120C A145U C150U U176A", "reverse-splicing fitness": 0.0132}
{"variant": "C82G A111C A120C A145U C150U U176C", "reverse-splicing fitness": 0.02}
{"variant": "C82G A111C A120C A145U C150U U176G", "reverse-splicing fitness": 0.00688}
{"variant": "C82G A111C A120C A145U C169A", "reverse-splicing fitness": 0.00731}
{"variant": "C82G A111C A120C A145U C169A U176A", "reverse-splicing fitness": 0.0143}
{"variant": "C82G A111C A120C A145U C169A U176C", "reverse-splicing fitness": 0.0142}
{"variant": "C82G A111C A120C A145U C169A U176G", "reverse-splicing fitness": 0.0056}
{"variant": "C82G A111C A120C A145U C169G", "reverse-splicing fitness": 0.00877}
{"variant": "C82G A111C A120C A145U C169G U176A", "reverse-splicing fitness": 0.0141}
{"variant": "C82G A111C A120C A145U C169G U176C", "reverse-splicing fitness": 0.0177}
{"variant": "C82G A111C A120C A145U C169G U176G", "reverse-splicing fitness": 0.00713}
{"variant": "C82G A111C A120C A145U C169U", "reverse-splicing fitness": 0.0143}
{"variant": "C82G A111C A120C A145U C169U U176A", "reverse-splicing fitness": 0.0126}
{"variant": "C82G A111C A120C A145U C169U U176C", "reverse-splicing fitness": 0.0123}
{"variant": "C82G A111C A120C A145U C169U U176G", "reverse-splicing fitness": 0.00641}
{"variant": "C82G A111C A120C A145U U176A", "reverse-splicing fitness": 0.0196}
{"variant": "C82G A111C A120C A145U U176C", "reverse-splicing fitness": 0.0239}
{"variant": "C82G A111C A120C A145U U176G", "reverse-splicing fitness": 0.00884}
{"variant": "C82G A111C A120C C150A", "reverse-splicing fitness": 0.0114}
{"variant": "C82G A111C A120C C150A C169A", "reverse-splicing fitness": 0.0108}
{"variant": "C82G A111C A120C C150A C169A U176A", "reverse-splicing fitness": 0.0164}
{"variant": "C82G A111C A120C C150A C169A U176C", "reverse-splicing fitness": 0.019}
